Data published in patent US20250289897A1, “LEPTIN RECEPTOR AGONISTIC ANTIBODY AS MONO OR COMBO THERAPIES TO TREAT OBESITY” (ELI LILLY AND COMPANY, priority 2024, published 2025).
Values joined by “and” are separate entries in the source; they are usually repeats but may differ in a detail not shown here. Equal entries are not always repeated.

Tests used:
[1] = target: T1, FcRn (Homo sapiens, UniProt P55899); test: Relative FcRn binding by FcRn-HPLC; details: FcRn affinity column; for Retention Time: pH gradient 5.5 to 8.8 over 90 minutes, main peak; for Peak Width: peak width at 50% peak height
T1 construct: purchased Roche 09430857001
Description: IgG binding to neonatal Fc receptor (FcRn) is a key mechanism for antibody recycling and a determinant of antibody pharmacokinetics (PK). […] Antibody-A is an IgG1 mAb with L234A, L235A, D265S mutations to reduce FcγR and Clq binding and M252Y, S254T, and T256E mutations to modulate the antibody's clearance profile. The impact of these combined mutation sets was assessed by FcRn-HPLC. Stock antibody solutions were diluted to 1 mg/mL into 20 mM MES, 140 mM NaCl, pH5.5. An Agilent 1290 HPLC equipped with an FcRn Affinity Column Gen2 (Roche, Cat #09430857001) was pre-equilibrated with 20 mM MES, 140 mM NaCl, pH5.5 with a flow rate of 0.2mL/min. 20 μμL antibody injections were made followed by 10 minute column wash with 20 mM MES, 140 mM NaCl, pH5.5. Antibodies were then eluted by pH gradient elution into 20 mM Tris, 140 mM NaCl, pH8.8 over 90 minutes. Chromatograms were blank-subtracted to remove baseline drift.

[2] = target: leptin-LEPR interaction (Homo sapiens, UniProt P48357); test: ELISA based competition binding assay of antibodies and leptin protein to LEPR
leptin-LEPR interaction, sequence (P48357 with tags, fused parts or gaps): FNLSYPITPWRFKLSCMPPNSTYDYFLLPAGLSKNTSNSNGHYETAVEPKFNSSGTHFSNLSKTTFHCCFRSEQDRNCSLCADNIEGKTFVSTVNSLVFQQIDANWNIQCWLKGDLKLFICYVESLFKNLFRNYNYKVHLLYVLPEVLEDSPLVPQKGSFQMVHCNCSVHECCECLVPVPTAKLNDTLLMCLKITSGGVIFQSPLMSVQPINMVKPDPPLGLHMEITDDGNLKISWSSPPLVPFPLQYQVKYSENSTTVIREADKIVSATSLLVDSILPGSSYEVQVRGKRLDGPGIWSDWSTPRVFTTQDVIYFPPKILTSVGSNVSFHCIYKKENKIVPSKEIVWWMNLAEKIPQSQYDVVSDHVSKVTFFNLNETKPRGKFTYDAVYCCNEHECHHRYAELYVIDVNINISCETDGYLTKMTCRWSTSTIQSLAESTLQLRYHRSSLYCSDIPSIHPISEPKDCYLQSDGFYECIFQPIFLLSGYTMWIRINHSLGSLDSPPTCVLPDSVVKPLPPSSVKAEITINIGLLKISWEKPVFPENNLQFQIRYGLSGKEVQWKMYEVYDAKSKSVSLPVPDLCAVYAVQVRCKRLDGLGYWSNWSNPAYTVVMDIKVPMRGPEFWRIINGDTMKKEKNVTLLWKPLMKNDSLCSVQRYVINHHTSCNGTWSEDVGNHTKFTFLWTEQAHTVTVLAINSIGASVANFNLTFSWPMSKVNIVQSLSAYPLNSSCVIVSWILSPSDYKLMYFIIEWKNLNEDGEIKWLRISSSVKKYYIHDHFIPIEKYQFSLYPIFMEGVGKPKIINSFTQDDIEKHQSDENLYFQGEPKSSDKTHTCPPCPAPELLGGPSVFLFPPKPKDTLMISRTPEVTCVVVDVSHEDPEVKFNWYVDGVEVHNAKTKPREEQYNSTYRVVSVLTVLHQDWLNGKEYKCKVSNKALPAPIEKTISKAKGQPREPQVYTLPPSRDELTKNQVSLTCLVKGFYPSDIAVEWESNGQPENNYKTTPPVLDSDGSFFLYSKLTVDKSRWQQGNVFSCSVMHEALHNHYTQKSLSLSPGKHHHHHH

Retention Time [1] | Peak Width [1] | Substance | Hill Slope ([2]; competition dose response curve) | Bottom (%) ([2]; percent leptin binding to plate-bound LEPR-Fc, 2 nM leptin, bottom of dose response curve) | Top (%) ([2]; percent leptin binding to plate-bound LEPR-Fc, 2 nM leptin, top of dose response curve)
69.4 min | 1.9 min | Ustekinumab |  |  | 
 |  | hLEPR-TEV-hIgG1Fc: recombinant LEPR extracellular domain fused to hIgG1-Fc (SEQ ID NO: 30), positive control competing for leptin | −1.07 | 6.076% | 92.03%
88.9 min | 10 min and 10.0 min | Briakinumab |  |  | 
